{
  "source": "patent US12466853B2",
  "about": "“Selective targeting of apoptosis proteins by structurally-stabilized and/or cysteine-reactive NOXA peptides” (priority 2017, dated 2025)",
  "key": {"[1]": {"test_system": "U937 cells", "assay": "LDH release assay, U937 cells", "format": "cell-based, human", "settings": "30 min and 4 hr, listed as D-NA-NOXA SAHB-15 R31E", "protocol": "After overnight incubation for A375P cells, or immediately upon plating for U937 cells, the cells were treated with the indicated concentrations of D-NA-NOXA SAHBs in DMEM or RPMI supplemented with 5% FBS for the indicated time period (30 min, 4 h). After plate centrifugation at 1,500 rpm (Thermo Scientific Sorvall Four-Place Swinging Bucket Rotor [75006445]; 478×g) for 5 min at 4° C., LDH release was quantified by transferring 100 μL of cell-culture medium to a clear plate (Corning), incubating with 100 μL of LDH reagent (Roche) for 30 min while shaking, and then measuring absorbance at 490 nm on a microplate reader (Spectramax M5, Molecular Devices)."}, "[2]": {"biological_target": "T1, native BFL-1 (Homo sapiens, UniProt Q16548)", "T1 construct": "endogenous in cells; host or cells: A375P melanoma cells (A10); U937 AML cells (A12), lysates", "T1 sequence (Q16548 1-175)": "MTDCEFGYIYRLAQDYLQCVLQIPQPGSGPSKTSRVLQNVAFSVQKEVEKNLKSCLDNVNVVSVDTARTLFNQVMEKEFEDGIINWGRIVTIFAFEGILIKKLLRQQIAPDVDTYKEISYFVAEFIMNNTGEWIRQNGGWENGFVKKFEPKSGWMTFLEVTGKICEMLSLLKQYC", "assay": "BFL-1 targeting in A375P lysates (streptavidin pulldown, BFL-1 western)", "format": "binding", "settings": "biotinylated SAHB, compared to acetylated construct", "protocol": "(§1) Cultured A375P and U937 cells were trypsinized or harvested, respectively, washed with PBS, and lysed by incubating with 1% CHAPS lysis buffer (1% CHAPS, 150 mM NaCl, 50 mM Tris pH 7.4, 100 μM DTT). The protein concentrations of the soluble fraction were measured using a BCA kit according to the manufacturer's instructions (Thermo Scientific). Lysate samples (1 mg) were incubated with vehicle or C-terminally biotinylated NOXA SAHBs (30 μM) overnight in 1% CHAPS lysis buffer at 4° C. Biotin capture was accomplished by incubating the mixture with high-capacity SA agarose (Thermo Scientific) for 2 hours at 4° C., followed by centrifugation and washing the pelleted beads three times with lysis buffer (1 mL). Bead-bound proteins were eluted by boiling in 10% SDS containing 10 mg/mL biotin for 10 minutes and then subjected to electrophoresis and western blotting using BFL-1 (Abcam, #125259) and MCL-1 (Rockland #600-401-394S) antibodies."}, "[3]": {"biological_target": "T1, native BFL-1", "assay": "BFL-1 targeting in U937 lysates (streptavidin pulldown, BFL-1 western)", "format": "binding", "settings": "biotinylated SAHB", "text": "(§2) We confirmed that both of our lead constructs could covalently crosslink to full-length BFL-1 protein, which bears a C-terminal helix that could potentially compete with D-NA-NOXA SAHBs for interaction at the canonical BH3-binding pocket in cancer cells. We generated recombinant full-length BFL-1 and expressed HA-tagged full-length BFL-1 in 293T cells, and then conducted crosslinking analyses in vitro and in treated cells, respectively.\nas §1"}, "[4]": {"biological_target": "T2, full-length BFL-1 (Homo sapiens, UniProt Q16548)", "T2 construct": "Recombinant full-length BFL-1 (aa-175) containing an N-terminal hexahistidine tag; made in house", "T2 sequence (Q16548 1-175)": "T1 sequence (Q16548 1-175)", "assay": "Covalent crosslinking to full-length BFL-1, recombinant and HA-tagged expressed in 293T cells", "format": "binding", "settings": "recombinant and expressed in 293T cells; somewhat reduced efficiency vs C-terminally truncated species", "text": "as §2\nRecombinant full-length BFL-1 (aa-175) containing an N-terminal hexahistidine tag was cloned into the PTYB1 vector (New England Biolabs) and purified as above except for the addition of a chitin affinity chromatography and DTT elution step. Protein purity and identity was confirmed by Coomassie staining and western blot analysis using a mouse monoclonal anti-His6 tag antibody (Abcam).\nHis-BFL-1ΔC C4S/C19S protein (5 μM) was pre-treated with 10 mM DTT in 50 mM Tris (pH 8.0) and 100 mM NaCl for 30 min at room temperature (final volume […]) and then combined with a 10:1 molar ratio of cysteine-reactive NOXA SAHB for an additional 1-hr incubation at room temperature. The samples were then boiled in 3× loading buffer with DTT and electrophoresed on 12% Bis-Tris gel, then subjected to Coomassie staining."}, "[5]": {"test_system": "KG-1 cells", "assay": "Cell viability (CellTiter-Glo) and CalcuSyn synergy, KG-1", "format": "cell-based, human", "settings": "KG-1 AML cells", "quoted_text": "U937, MV4;11, OCI-AML-3, Jurkat, and KG-1 cells cultured in RPMI containing 10% FBS and penicillin-streptomycin were plated in 96-well plates (5×10^3 cells per well) and, after overnight incubation, treated with the indicated concentrations of D-NA-NOXA SAHB and/or AZD0156, Ku-60019, Ku-55933, AZD7762, olaparib, or S63845 (all from Selleck Chemicals) in RPMI supplemented with 5% FBS for the indicated durations. Cell viability and caspase-3/7 activation was measured using CellTiter-Glo and Caspase-Glo 3/7 chemiluminescence reagents (Promega), respectively, and luminescence was detected by a Spectramax M5 microplate reader. Synergy of drug interactions was calculated using the CalcuSyn software (Biosoft)."}, "[6]": {"biological_target": "T3, BCL-XLΔC / FITC-BID BH3 (Homo sapiens, UniProt Q07817)", "T3 construct": "Recombinant anti-apoptotic BCL-XLΔC (aa 1-212) and MCL-1ΔNΔC (aa 172-329); GST (N, cleaved yes); made in house; host or cells: Escherichia coli BL21(DE3)", "T3 sequence (Q07817 1-212, stated change not applied)": "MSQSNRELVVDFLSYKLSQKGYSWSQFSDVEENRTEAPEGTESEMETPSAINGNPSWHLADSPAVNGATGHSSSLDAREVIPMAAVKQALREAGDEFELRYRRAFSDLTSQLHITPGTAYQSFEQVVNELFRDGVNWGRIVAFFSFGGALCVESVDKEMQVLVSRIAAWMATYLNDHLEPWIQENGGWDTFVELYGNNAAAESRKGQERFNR", "assay": "Competitive fluorescence polarization binding assay, BCL-XLΔC", "protocol": "Fluorescence polarization (FP) assays were performed as previously described (Pitter et al., 2008 (supra)). Briefly, direct binding curves were first generated by FITC-BID BH3 (25 nM) with serial dilutions of anti-apoptotic protein, and FP was measured at 5 min on a SpectraMax M5 microplate reader (Molecular Devices). For competition assays, a serial dilution of acetylated or warhead-bearing NOXA SAHB was added to the indicated recombinant protein at ˜EC75 concentration, as determined by the direct binding assay. FITC-BID BH3 (25 nM) was then added and fluorescence polarization was measured at equilibrium. IC50 values were calculated by nonlinear regression analysis of competitive binding curves using PRISM software (GraphPad)."}},
  "note": "“Also recorded” adds a separate entry of the source.",
  "data": [
    {"substance": "JAT8LREFGDXLNFRQ [D-NA-NOXA-15 R31E]", "values": [
      {"measurement": "LDH release (non-specific cell membrane-lytic activity)", "setting": "[1]", "result": "no LDH release; also recorded: no non-specific cell membrane-lytic activity"},
      {"measurement": "targeting of native BFL-1", "setting": "[2]", "result": "enhanced targeting of native BFL-1"},
      {"measurement": "targeting of native BFL-1", "setting": "[3]", "result": "more effective binder of native BFL-1 protein between the two constructs"},
      {"measurement": "covalent crosslinking to full-length BFL-1", "setting": "[4]", "result": "covalent crosslinking to recombinant and expressed full-length BFL-1"},
      {"measurement": "cytotoxicity, single agent", "setting": "[5]", "result": "dose-responsive cytotoxicity"},
      {"measurement": "competition for FITC-BID BH3 binding to BCL-XLΔC", "setting": "[6]", "result": "neither Ac- nor D-NA-NOXA-15 R31E is able to compete"}
    ]}
  ]
}
